The binders below were run against HLA-A2 (assay: functional competition vs tyrosinase 368-376 on T2 cells, readout lysis by CTL LAU 156/34; 50% inhibition).

Binder | IC50 [nM]
AAAPKIFYA (modifications not checked) [… (SEQ ID NO: 1)] | 20
AAAPAIFYA (modifications not checked) [… (SEQ ID NO: 4)] | 22

Continued by falling IC50, values first:

IC50 [nM] | Binder
286 | AAGPKIFYA (modifications not checked) [… (SEQ ID NO: 2)]
200 | AAAPKAFYA (modifications not checked) [… (SEQ ID NO: 5)]
133 | AAAAKIFYA (modifications not checked) [… (SEQ ID NO: 3)]

Each binder was assayed against HLA-A2 (assay: functional competition vs tyrosinase 368-376 on T2 cells, readout lysis by CTL LAU 156/34; relative to SEQ ID NO: 1).

Binder | Relative binding
AAAPKIFYA (modifications not checked) [… (SEQ ID NO: 1)] | 1
AAAPAIFYA (modifications not checked) [… (SEQ ID NO: 4)] | 0.9

The next lines start with the values.

Relative binding | Binder
0.07 | AAGPKIFYA (modifications not checked) [… (SEQ ID NO: 2)]
0.1 | AAAPKAFYA (modifications not checked) [… (SEQ ID NO: 5)]
0.16 | AAAAKIFYA (modifications not checked) [… (SEQ ID NO: 3)]

Each binder was assayed against HLA-A2 (assay: functional competition vs tyrosinase 368-376 on T2 cells; relative to SEQ ID NO: 17).

Binder | Relative binding
AAAPKIFYA (modifications not checked) [… (SEQ ID NO: 1)] | 10
AAAPAIFYA (modifications not checked) [… (SEQ ID NO: 4)] | 9

Second part, the binder after the results:

Relative binding | Binder
0.7 | AAGPKIFYA (modifications not checked) [… (SEQ ID NO: 2)]
1 | AAAPKAFYA (modifications not checked) [… (SEQ ID NO: 5)]
1.5 | AAAAKIFYA (modifications not checked) [… (SEQ ID NO: 3)]

Reference: US20070105779A1, “Isolated, ssx-2 and ssx-2 related peptides useful as hla binders and ctl epitopes, and uses thereof” (priority 2002, published 2007)
